Measurements taken from publication PMC7688132, “Preparation and characterization of monoclonal antibodies recognizing two CD4 isotypes of Microminipigs” (PLoS ONE, 2020).

Tests used:
[1] = molecular target: T1, swine (Microminipig) CD4.B expressed on transfected HEK293 cells (Sus scrofa, Microminipig, allele CD4.B, UniProt A0A0M4UHP2, strain); test: flow cytometry on cells; HEK293 transfected with CD4.A or CD4.B (mVenus co-expressed) stained with hybridoma clone supernatant, then anti-mouse IgG-APC; conditions: partners not purified
T1 construct: CD4 allele CD4.B of the Microminipig; five replacements between the alleles are printed (T61I, G65R, G66S, G68R, T73K); also called CD4.B transfectant; source: HEK293, transfected (S/MAR episomal vector, mVenus co-expressed), on cells

[2] = molecular target: T2, swine (Microminipig) CD4.A expressed on transfected HEK293 cells (Sus scrofa, Microminipig, allele CD4.A, UniProt A0A0M3VH80, strain); test: as above; conditions: partners not purified
T2 construct: CD4 allele CD4.A of the Microminipig; also called CD4.A transfectant; source: HEK293, transfected (S/MAR episomal vector, mVenus co-expressed), on cells

[3] = molecular target: T3, CD4.A, endogenous in CD4.A (+/+) Microminipig cells (Sus scrofa, Microminipig, allele CD4.A …, UniProt A0A0M3VH80, strain); test: flow cytometry on cells; CD4.A (+/+) and CD4.B (+/+) swine PBMCs stained with the purified mAb and anti-mouse IgG-APC (b1D7) or anti-mouse IgG2a-FITC (x1E10); lymphocyte gate; isotype control; conditions: one partner purified
T3 construct: CD4 allele CD4.A of the Microminipig, as in animals genotyped CD4.A (+/+) by PCR-RFLP; allele mRNA LC064059; also called CD4.A (+/+) swine PBMCs; CD4.A (+/+) spleen; source: endogenous, CD4.A (+/+) Microminipig PBMCs and spleen tissue sections

[4] = molecular target: T4, CD4.B, endogenous in CD4.B (+/+) Microminipig cells (Sus scrofa, Microminipig, allele CD4.B …, UniProt A0A0M4UHP2, strain); test: as above; conditions: one partner purified
T4 construct: CD4 allele CD4.B of the Microminipig, as in animals genotyped CD4.B (+/+) by PCR-RFLP; allele mRNA LC064060; also called CD4.B (+/+) swine PBMCs; CD4.B (+/+) spleen; source: endogenous, CD4.B (+/+) Microminipig PBMCs and spleen tissue sections

[5] = molecular target: T1, swine (Microminipig) CD4.B expressed on …; test: flow cytometry on cells; HEK293 transfected with CD4.A or CD4.B stained with biotinylated x1E10 and streptavidin PE-Cy7; conditions: one partner purified
[6] = molecular target: T2, swine (Microminipig) CD4.A expressed on …; test: as above; conditions: one partner purified

Measured: binding result

B1: anti-swine CD4.AB mAb x1E10 (antibody, V domains shown)
VH: DVQLQESGPGLVKPSQSLSLTCTVTGYSIISDYAWNWIRQFPGNKMEWMGYILYSGTTNYNPSLKSRISITRDTSKNQFFLQLNSVTTEDTATYYCARRTYYDYDYYGMDYWGQGTSVTVSS
VL: DVLMTQIPLSLPVSLGDQASISCRSSQTIVHSLGNTYLEWYLQKPGQSPKLLIYKVSNRFSGVPDRFIGSGSGTDFTLKITRVEAEDLGVYYCFQGSHVPWTFGGGTKLEIK
notes: IgG2a kappa; also called x1E10 (1C3-1E8); anti-CD4AB mAb; source: mouse hybridoma (BALB/c splenocytes fused with P3-X63-Ag8-U1), clone supernatant; purified mAb
binds: [1] | [2] | [3] | [4]

B2: biotinylated x1E10 mAb (antibody, V domains shown)
VH: DVQLQESGPGLVKPSQSLSLTCTVTGYSIISDYAWNWIRQFPGNKMEWMGYILYSGTTNYNPSLKSRISITRDTSKNQFFLQLNSVTTEDTATYYCARRTYYDYDYYGMDYWGQGTSVTVSS
VL: DVLMTQIPLSLPVSLGDQASISCRSSQTIVHSLGNTYLEWYLQKPGQSPKLLIYKVSNRFSGVPDRFIGSGSGTDFTLKITRVEAEDLGVYYCFQGSHVPWTFGGGTKLEIK
notes: as the heavy chain of m2; as the light chain of m2; IgG2a kappa; same antibody as m2 with a biotin label; also called x1E10 labeled with biotin; source: mouse hybridoma x1E10; biotinylated with Biotin Labeling Kit (Cosmo Bio)
binds: [5] | [6]
